From publication PMC6336319, “EBNA3C facilitates RASSF1A downregulation through ubiquitin-mediated degradation and promoter hypermethylation to drive B-cell proliferation” (PLoS Pathogens, 2019)

Molecular target: T1, Flag-tagged EBNA3C 366-620 (Epstein-Barr virus, UniProt P03204 366-620)
T1 construct: also called pA3F-EBNA3C 366–620; EBNA3C 366-620aa; source: Saos-2, transfected, in lysate
T1 sequence: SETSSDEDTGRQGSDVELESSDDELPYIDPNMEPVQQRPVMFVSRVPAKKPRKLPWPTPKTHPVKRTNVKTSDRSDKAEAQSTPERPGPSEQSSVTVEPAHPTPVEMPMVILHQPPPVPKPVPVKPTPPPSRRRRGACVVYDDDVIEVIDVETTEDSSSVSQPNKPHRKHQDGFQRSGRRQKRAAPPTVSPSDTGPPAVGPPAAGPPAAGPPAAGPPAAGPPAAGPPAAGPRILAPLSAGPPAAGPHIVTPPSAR
Assay: co-IP; Saos-2 cells co-transfected, lysed 48 h later in RIPA buffer (1% NP-40, 10 mM Tris pH 8.0, 2 mM EDTA, 150 mM NaCl); immunoprecipitation with 1 ug anti-Flag antibody, overnight at 4 °C; western blot with anti-Flag and anti-Myc
Conditions: partners not purified

B1: Myc-tagged full-length RASSF1A (Ras association domain family isoform 1A) (natural protein, human, UniProt Q9NS23-2 1-340, looked up)
chain: MSGEPELIELRELAPAGRAGKGRTRLERANALRIARGTACNPTRQLVPGRGHRFQPAGPATHTWCDLCGDFIWGVVRKGLQCAHCKFTCHYRCRALVCLDCCGPRDLGWEPAVERDTNVDEPVEWETPDLSQAEIEQKIKEYNAQINSNLFMSLNKDGSYTGFIKVQLKLVRPVSVPSSKKPPSLQDARRGPGRGTSVRRRTSFYLPKDAVKHLHVLSRTRAREVIEALLRKFLVVDDPRKFALFERAERHGQVYLRKLLDDEQPLRLRLLAGPSDKALSFVLKENDSGEVNWDAFSMPELHNFLRILQREEEEHLRQILQKYSYCRQKIQEALHACPLG
notes: RASSF1A (Ras association domain family isoform 1A), full length, amplified from total RNA by RT-PCR and cloned into pA3M; also called Myc-RASSF1A; pA3M-RASSF1A; source: Saos-2, transfected, in lysate
- signal relative to EBNA3C residues 1-365: ~50%
